± gives the uncertainty stated by the source.
B1: Double-stranded RNA-binding protein Staufen homolog 1, residues 183 to 249; numbered along this chain, O95793 (parent)
chain: KSEISQVFEIALKRNLPVNFEVARESGPPHMKNFVTKVSVGEFVGEGEGKSKKISKKNAAIAVLEEL

Variants of: B1
Assay: abundance fitness (aPCA) (normalised: wild type 0, dead -1); higher = more abundant; growth selection in yeast, the domain comes from the species named
Details: Homo sapiens

Variant	abundance fitness
KSEISQVFEIALKRNLPVNFEVARESGPPHMKNFVTKVSVGEFVGEGEGKSKKISKKNSAIAVLEEL [A59S]	-0.608 ± 0.055
KSEISQVFEIALKRNLPVNFEVARHSGPPHMKNFVTKVSVGEFVGEGEGKSKKISKKNAAIAVLEEL [E25H]	-0.052 ± 0.064
KSEISQVFEIALKRNLPVNFEVARSSGPPHMKNFVTKVSVGEFVGEGEGKSKKISKKNAAIAVLEEL [E25S]	0.002 ± 0.038
KSEISQVFEIALKRNLPVNFEVARESGPPHMKNFVTKVSVGEFVGEGEGKSKKISKKNAAIAVAEEL [L64A]	-0.473 ± 0.049
KSEISQVFEIALKRNLPVNFEVARESGPPHMKNFVTKVSVGEFVGEGEGKSKKISKKEAAIAVLEEL [N58E]	-0.238 ± 0.057
KSEISQVFEIALKRNLPVNFEVARESGPPHMKNFVTKVSVGEFVGEGEGKSKKISKKIAAIAVLEEL [N58I]	-0.614 ± 0.085
KSEISQVFEIALKRNLKVNFEVARESGPPHMKNFVTKVSVGEFVGEGEGKSKKISKKNAAIAVLEEL [P17K]	0.031 ± 0.059
KSEISQVFEIALKRNLPVNFEVARESGPPHMKNFVTKVSQGEFVGEGEGKSKKISKKNAAIAVLEEL [V40Q]	-0.542 ± 0.056
KSEISQVFEIALKRNLPVNFEVARESGPPHMKNFVTKVPVGEFVGEGEGKSKKISKKNAAIAVLEEL [S39P]	-0.703 ± 0.08
KSEISQVFEIALKRNLPVNFEVARESGPPHMKNFVTKVMVGEFVGEGEGKSKKISKKNAAIAVLEEL [S39M]	-0.056 ± 0.059
KSEISQVFEIALKRNLPVNFEVARESGPPHMKNFVTKVSVGEFVGEGEGKSKKISKKNAWIAVLEEL [A60W]	-1.02 ± 0.11
KSEISQVFEIALKRNLPVNFEVARESGPPHMKNFVTKVSVGEFVGEGEGKSKKISKKNAAEAVLEEL [I61E]	-0.245 ± 0.068
KSEISQVFEIALKRNLPVNFEVARESGPPHMKNFVTKVSVGEFVGEGEGLSKKISKKNAAIAVLEEL [K50L]	-0.132 ± 0.042
KSEISQVFEIALKRNLPVNFEHARESGPPHMKNFVTKVSVGEFVGEGEGKSKKISKKNAAIAVLEEL [V22H]	-0.083 ± 0.078
KSEISQVFEIALKRNLPVNFEVARESGPKHMKNFVTKVSVGEFVGEGEGKSKKISKKNAAIAVLEEL [P29K]	-0.061 ± 0.047
KSEISQVFEIALKRNLPVNFEVARESGPSHMKNFVTKVSVGEFVGEGEGKSKKISKKNAAIAVLEEL [P29S]	-0.04 ± 0.04
KSEISQVFEIALKRNLPVNFEVARESGPPHMKNFVTKVSVGEFVGEGEGKSKKISKKNAAIATLEEL [V63T]	-0.615 ± 0.056
KSEISQVFPIALKRNLPVNFEVARESGPPHMKNFVTKVSVGEFVGEGEGKSKKISKKNAAIAVLEEL [E9P]	-0.716 ± 0.071
KSEISQVFCIALKRNLPVNFEVARESGPPHMKNFVTKVSVGEFVGEGEGKSKKISKKNAAIAVLEEL [E9C]	-0.33 ± 0.075
KSEISQVFEIALKRNLPVNFEVARESGPPGMKNFVTKVSVGEFVGEGEGKSKKISKKNAAIAVLEEL [H30G]	-0.017 ± 0.039
KSEISQVFEIALKRNLPVNFEVARESGPPAMKNFVTKVSVGEFVGEGEGKSKKISKKNAAIAVLEEL [H30A]	-0.139 ± 0.043
KSEISQVFEIALKRNLPVNFEVARESGFPHMKNFVTKVSVGEFVGEGEGKSKKISKKNAAIAVLEEL [P28F]	-0.35 ± 0.07
KSEISQVFEIALKRNLPVNFEVARESGKPHMKNFVTKVSVGEFVGEGEGKSKKISKKNAAIAVLEEL [P28K]	-0.218 ± 0.057
KSEISQVFEIALKRNLPVNFLVARESGPPHMKNFVTKVSVGEFVGEGEGKSKKISKKNAAIAVLEEL [E21L]	-0.133 ± 0.041
KSEISQVFEIALKRNLPVNFQVARESGPPHMKNFVTKVSVGEFVGEGEGKSKKISKKNAAIAVLEEL [E21Q]	0.014 ± 0.058
KSEISQVFEIALKRNLPVNFGVARESGPPHMKNFVTKVSVGEFVGEGEGKSKKISKKNAAIAVLEEL [E21G]	-0.165 ± 0.037
KSEISQVFEIALKRNLPVNFEVARESGPPHMKNFYTKVSVGEFVGEGEGKSKKISKKNAAIAVLEEL [V35Y]	-0.174 ± 0.085

Variant	abundance fitness
KSEISQVFEIALKRNLPVNFEVARESGPPHMKNFFTKVSVGEFVGEGEGKSKKISKKNAAIAVLEEL [V35F]	0.033 ± 0.087
RSEISQVFEIALKRNLPVNFEVARESGPPHMKNFVTKVSVGEFVGEGEGKSKKISKKNAAIAVLEEL [K1R]	-0.178 ± 0.048
KSEISQVFEIALKRNLPVNFEVARESGPPHMKNFVTKVSVGYFVGEGEGKSKKISKKNAAIAVLEEL [E42Y]	-0.131 ± 0.12
KSEISQVFEIALKRNLPVNFEVARESGPPHMKNFVTKVSVGWFVGEGEGKSKKISKKNAAIAVLEEL [E42W]	-0.3 ± 0.044
KSEISQVFEIANKRNLPVNFEVARESGPPHMKNFVTKVSVGEFVGEGEGKSKKISKKNAAIAVLEEL [L12N]	0.081 ± 0.11
KSEISQVFEIALKRNLPVNFEVARESGPPHMKNIVTKVSVGEFVGEGEGKSKKISKKNAAIAVLEEL [F34I]	-0.372 ± 0.063
KSEISQVFEIALKRNLPVNFEVARESGPPHMKNCVTKVSVGEFVGEGEGKSKKISKKNAAIAVLEEL [F34C]	-0.547 ± 0.06
KSEISQVFEIALKRNLPVNFEVARESGPPHMKNFVTKVSVGEFVGEGEGKSKIISKKNAAIAVLEEL [K53I]	-0.225 ± 0.067
KSEISQVFEIALKRNLPVNFEVARESGPPHMKNFVTKVSVGEFVGEGEGKSKNISKKNAAIAVLEEL [K53N]	-0.243 ± 0.065
KSEISQVFEIALKRNLPVNFEVARESGPPHMKNFVTKVSVLEFVGEGEGKSKKISKKNAAIAVLEEL [G41L]	-0.91 ± 0.07
KSEISQVFEIALKRNMPVNFEVARESGPPHMKNFVTKVSVGEFVGEGEGKSKKISKKNAAIAVLEEL [L16M]	-0.131 ± 0.077
KSEISQVFEIALKRNFPVNFEVARESGPPHMKNFVTKVSVGEFVGEGEGKSKKISKKNAAIAVLEEL [L16F]	-0.424 ± 0.15
KSEISQVFEIALKRNHPVNFEVARESGPPHMKNFVTKVSVGEFVGEGEGKSKKISKKNAAIAVLEEL [L16H]	-0.708 ± 0.12
KSEISQVFEIALKRNLPVNFEVARESGPPHMKNFVTKVSVGEFVGEGEGKSKKISKKNAAIAVLENL [E66N]	-0.012 ± 0.082
KSEISQVFEIALKRNLPVNFEVARESGPPHMKNFVTKVSVGEFVGEGEGKSKKIYKKNAAIAVLEEL [S55Y]	-1.07 ± 0.16
KSEISQVFEIALKRNLPVNFEVARESGPPHMKNFVTKVSVGEFVGEGEGKSKKIWKKNAAIAVLEEL [S55W]	-1 ± 0.079
KSEISQVFEIALKRNLPVNFEVAKESGPPHMKNFVTKVSVGEFVGEGEGKSKKISKKNAAIAVLEEL [R24K]	0.016 ± 0.049
KSEISQVFEIALKRNLPVNFEVARESSPPHMKNFVTKVSVGEFVGEGEGKSKKISKKNAAIAVLEEL [G27S]	-0.267 ± 0.042
KSEISTVFEIALKRNLPVNFEVARESGPPHMKNFVTKVSVGEFVGEGEGKSKKISKKNAAIAVLEEL [Q6T]	-0.198 ± 0.03
KSEISQVFEIALKRNLPVNFEVARESGPPHMKNFVTKVSVGEFFGEGEGKSKKISKKNAAIAVLEEL [V44F]	-0.195 ± 0.15
KSEISQQFEIALKRNLPVNFEVARESGPPHMKNFVTKVSVGEFVGEGEGKSKKISKKNAAIAVLEEL [V7Q]	-0.681 ± 0.062
KSEISQLFEIALKRNLPVNFEVARESGPPHMKNFVTKVSVGEFVGEGEGKSKKISKKNAAIAVLEEL [V7L]	-0.142 ± 0.038
KSEISQVFEIALKRELPVNFEVARESGPPHMKNFVTKVSVGEFVGEGEGKSKKISKKNAAIAVLEEL [N15E]	-0.231 ± 0.054
KSEISQVFEIALKRNLPVNFEVARESGPPHMKNFVTKVSVGEFVGEGEGKSYKISKKNAAIAVLEEL [K52Y]	-0.329 ± 0.078
KREISQVFEIALKRNLPVNFEVARESGPPHMKNFVTKVSVGEFVGEGEGKSKKISKKNAAIAVLEEL [S2R]	-0.382 ± 0.048
KSEMSQVFEIALKRNLPVNFEVARESGPPHMKNFVTKVSVGEFVGEGEGKSKKISKKNAAIAVLEEL [I4M]	-0.292 ± 0.054
KSEESQVFEIALKRNLPVNFEVARESGPPHMKNFVTKVSVGEFVGEGEGKSKKISKKNAAIAVLEEL [I4E]	-0.44 ± 0.062

Variant	abundance fitness
KSEISQVFEIALKRNLPVNFEVARESGPPHMYNFVTKVSVGEFVGEGEGKSKKISKKNAAIAVLEEL [K32Y]	-0.187 ± 0.1
KSEISQVFEIALKRNLPVNFEVARESGPPHMTNFVTKVSVGEFVGEGEGKSKKISKKNAAIAVLEEL [K32T]	-0.118 ± 0.058
KSEISQVFEIALKNNLPVNFEVARESGPPHMKNFVTKVSVGEFVGEGEGKSKKISKKNAAIAVLEEL [R14N]	-0.179 ± 0.1
KSEISQVFEIALKKNLPVNFEVARESGPPHMKNFVTKVSVGEFVGEGEGKSKKISKKNAAIAVLEEL [R14K]	-0.212 ± 0.082
KSEISQVFEIALKRNLPVNFEVARESGPPHMKNFVTKVSVGEFVGEGEGKSKKISKKNAAIAVLKEL [E65K]	0.118 ± 0.055
KSEISQVFEIALKRNLPVNFEVARESGPPHMKNFVTKVSVGEFVGEGEGKSKKISKKNAAIGVLEEL [A62G]	-0.302 ± 0.05
KSEISQVFEIALKRNLPVNFEVARESGPPHMKNFVTKVSVGEFVGEGEGKSKKISKKNAAINVLEEL [A62N]	0.035 ± 0.097
KSEISQVFEIALKRNLPVNFEVARESGPPHMKNFVTKVSVGEFVGEGEGKSKKESKKNAAIAVLEEL [I54E]	0.09 ± 0.043
KSEISQVFEIALKRNLPVNFEVARESGPPHMKNFVTKVSVGEFVGEGEGKSKKISVKNAAIAVLEEL [K56V]	-0.32 ± 0.064
KSEISQVFEIALKRNLPGNFEVARESGPPHMKNFVTKVSVGEFVGEGEGKSKKISKKNAAIAVLEEL [V18G]	-0.707 ± 0.056
KSEISQVFEIALKRNLPDNFEVARESGPPHMKNFVTKVSVGEFVGEGEGKSKKISKKNAAIAVLEEL [V18D]	-0.746 ± 0.17
KSEISQVFEIALKRNLPVNFEVARESGPPHMKNFVTKVSVGERVGEGEGKSKKISKKNAAIAVLEEL [F43R]	-0.482 ± 0.036
KSEISQVFEIALKRNLPVNFEVARESGPPHMKNFVTKVSVGEAVGEGEGKSKKISKKNAAIAVLEEL [F43A]	-0.124 ± 0.047
KSEISQVFEIALKRNLPVNFEVARESGPPHMKNFVTKVSVGEEVGEGEGKSKKISKKNAAIAVLEEL [F43E]	-0.44 ± 0.063
KSEISQVFEIALKRNLPVNFEVARESGPPHMKNFVAKVSVGEFVGEGEGKSKKISKKNAAIAVLEEL [T36A]	-0.251 ± 0.047
KSEISQVFEIYLKRNLPVNFEVARESGPPHMKNFVTKVSVGEFVGEGEGKSKKISKKNAAIAVLEEL [A11Y]	-0.967 ± 0.14
KSEISQVFEINLKRNLPVNFEVARESGPPHMKNFVTKVSVGEFVGEGEGKSKKISKKNAAIAVLEEL [A11N]	-0.564 ± 0.082
KSEISQVFEIMLKRNLPVNFEVARESGPPHMKNFVTKVSVGEFVGEGEGKSKKISKKNAAIAVLEEL [A11M]	-0.913 ± 0.098
KSEISQVFEIPLKRNLPVNFEVARESGPPHMKNFVTKVSVGEFVGEGEGKSKKISKKNAAIAVLEEL [A11P]	-0.891 ± 0.1
KSEISQVFEILLKRNLPVNFEVARESGPPHMKNFVTKVSVGEFVGEGEGKSKKISKKNAAIAVLEEL [A11L]	-0.9 ± 0.079
KSEISQVFEIALKRNLPVNLEVARESGPPHMKNFVTKVSVGEFVGEGEGKSKKISKKNAAIAVLEEL [F20L]	-0.286 ± 0.042
KSEISQVFEIALKRNLPVNNEVARESGPPHMKNFVTKVSVGEFVGEGEGKSKKISKKNAAIAVLEEL [F20N]	-0.779 ± 0.17
KSEISQVFEIALKRNLPVNFEVARESGPPHMKNFVTKVSVGEFVWEGEGKSKKISKKNAAIAVLEEL [G45W]	-0.582 ± 0.065
KSEISQVFEIALKRNLPVNFEVARESGPPHMKNFVTKVSVGEFVGCGEGKSKKISKKNAAIAVLEEL [E46C]	-0.034 ± 0.1
KSEISQVFEIALKRNLPVNFEVARESGPPHMKNFVTKVSVGEFVGWGEGKSKKISKKNAAIAVLEEL [E46W]	0.039 ± 0.069
KSEISQVFEIALKRNLPVNFEVARESGPPHMKNFVTKVSVGEFVGKGEGKSKKISKKNAAIAVLEEL [E46K]	-0.04 ± 0.084

Source: the Human Domainome abundance scans (Beltran et al. 2025)
